Measurements from publication PMC5996148, “Data set on G4 DNA interactions with human proteins”.

Key:
[1] = target: T1, LOC153684 protein (FLJ42001 fis, clone SPLEN2029912) (human, UniProt Q6ZVW3 1-145); assay: protein microarray; 2.5 uM ON; 4.86 at 25 uM; Microarray: 20 mM Tris pH 7.5, 5 mM MgCl2, 100 mM KCl, 0.1% Tween-20, A/T-rich ON blocker mix; EMSA: 20 mM Tris-HCl pH 8, 100 mM KCl, 200 nM ON, 0-200 nM BRD3; conditions: protein: commercial; label: biotin; intramolecular parallel G4
T1 sequence: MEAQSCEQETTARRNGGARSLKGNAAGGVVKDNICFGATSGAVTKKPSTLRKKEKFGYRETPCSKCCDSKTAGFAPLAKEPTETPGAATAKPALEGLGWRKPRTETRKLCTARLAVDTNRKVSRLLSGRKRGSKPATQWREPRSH

[2] = target: T2, GABA(A) receptor-associated protein (human, UniProt O95166 1-117); assay: as above; conditions: protein: commercial; label: biotin; intramolecular parallel G4
T2 sequence (O95166 whole entry): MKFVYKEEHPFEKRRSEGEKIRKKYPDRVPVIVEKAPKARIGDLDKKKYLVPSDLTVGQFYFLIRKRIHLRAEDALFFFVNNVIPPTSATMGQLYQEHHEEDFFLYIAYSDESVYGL

[3] = target: T3, chromosome 1 open reading frame 63 (human, UniProt Q9BUV0 1-290); assay: as above; conditions: protein: commercial; label: biotin; intramolecular parallel G4
T3 sequence: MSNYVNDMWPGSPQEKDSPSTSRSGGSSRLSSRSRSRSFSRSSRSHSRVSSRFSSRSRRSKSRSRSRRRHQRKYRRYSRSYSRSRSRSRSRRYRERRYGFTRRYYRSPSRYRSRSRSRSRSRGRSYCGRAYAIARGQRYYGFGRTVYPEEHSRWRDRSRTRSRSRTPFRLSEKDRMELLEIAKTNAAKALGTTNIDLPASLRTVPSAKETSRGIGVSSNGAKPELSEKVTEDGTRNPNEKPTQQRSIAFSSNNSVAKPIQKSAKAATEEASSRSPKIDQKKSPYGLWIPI

[4] = target: peripheral myelin protein 2 (human, UniProt P02689 1-132); assay: as above; conditions: protein: commercial; label: biotin; intramolecular parallel G4
peripheral myelin protein 2, sequence (P02689 whole entry): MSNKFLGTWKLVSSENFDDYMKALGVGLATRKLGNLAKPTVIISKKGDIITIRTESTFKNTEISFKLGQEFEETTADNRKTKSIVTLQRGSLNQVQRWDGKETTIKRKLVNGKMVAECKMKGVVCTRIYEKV

[5] = target: Cyclin-dependent kinase-like 3 (human, UniProt Q8IVW4-2 1-455); assay: as above; conditions: protein: commercial; label: biotin; intramolecular parallel G4
Cyclin-dependent kinase-like 3, sequence (Q8IVW4 1-455): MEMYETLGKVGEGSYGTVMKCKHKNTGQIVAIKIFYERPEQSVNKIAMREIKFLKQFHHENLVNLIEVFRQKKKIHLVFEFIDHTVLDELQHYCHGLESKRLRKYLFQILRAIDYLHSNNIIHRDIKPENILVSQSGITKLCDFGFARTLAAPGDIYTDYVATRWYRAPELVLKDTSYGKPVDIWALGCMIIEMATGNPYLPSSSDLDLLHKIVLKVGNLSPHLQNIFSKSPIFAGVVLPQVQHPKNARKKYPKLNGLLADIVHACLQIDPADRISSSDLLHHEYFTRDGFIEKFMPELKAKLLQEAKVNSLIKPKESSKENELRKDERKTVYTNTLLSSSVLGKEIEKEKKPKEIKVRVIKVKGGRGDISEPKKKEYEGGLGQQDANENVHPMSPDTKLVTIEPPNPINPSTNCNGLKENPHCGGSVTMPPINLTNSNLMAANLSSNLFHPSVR

[6] = target: T4, additional sex combs like 1 (human, UniProt Q6P1M8 1-84); assay: as above; conditions: protein: commercial; label: biotin; intramolecular parallel G4
T4 sequence: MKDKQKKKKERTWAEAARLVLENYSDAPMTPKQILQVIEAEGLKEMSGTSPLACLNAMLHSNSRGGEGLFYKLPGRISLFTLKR

[7] = target: T5, ankyrin repeat and zinc finger domain containing 1 (human, UniProt Q9H8Y5 1-726); assay: as above; conditions: protein: commercial; label: biotin; intramolecular parallel G4
T5 sequence: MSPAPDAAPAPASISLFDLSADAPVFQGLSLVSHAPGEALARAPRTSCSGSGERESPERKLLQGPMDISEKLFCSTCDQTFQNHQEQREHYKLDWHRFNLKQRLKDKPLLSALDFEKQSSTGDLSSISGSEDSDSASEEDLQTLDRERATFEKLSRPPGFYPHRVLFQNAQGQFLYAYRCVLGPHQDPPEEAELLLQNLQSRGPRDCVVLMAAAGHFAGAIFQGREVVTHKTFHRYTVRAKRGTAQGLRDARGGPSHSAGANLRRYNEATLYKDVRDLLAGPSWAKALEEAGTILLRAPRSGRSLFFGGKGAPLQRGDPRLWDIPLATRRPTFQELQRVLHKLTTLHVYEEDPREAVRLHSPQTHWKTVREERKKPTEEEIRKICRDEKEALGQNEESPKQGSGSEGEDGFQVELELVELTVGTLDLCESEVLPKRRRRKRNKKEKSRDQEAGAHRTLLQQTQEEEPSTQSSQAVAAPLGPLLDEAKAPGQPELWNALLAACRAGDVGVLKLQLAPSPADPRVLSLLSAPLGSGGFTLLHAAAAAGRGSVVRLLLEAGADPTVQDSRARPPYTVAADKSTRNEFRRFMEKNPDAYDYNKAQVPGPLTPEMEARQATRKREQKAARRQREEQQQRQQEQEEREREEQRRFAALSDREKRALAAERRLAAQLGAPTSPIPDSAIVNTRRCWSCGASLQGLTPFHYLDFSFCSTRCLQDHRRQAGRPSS

[8] = target: T6, survival motor neuron domain containing 1 (human, UniProt O75940 1-238); assay: as above; conditions: protein: commercial; label: biotin; intramolecular parallel G4
T6 sequence: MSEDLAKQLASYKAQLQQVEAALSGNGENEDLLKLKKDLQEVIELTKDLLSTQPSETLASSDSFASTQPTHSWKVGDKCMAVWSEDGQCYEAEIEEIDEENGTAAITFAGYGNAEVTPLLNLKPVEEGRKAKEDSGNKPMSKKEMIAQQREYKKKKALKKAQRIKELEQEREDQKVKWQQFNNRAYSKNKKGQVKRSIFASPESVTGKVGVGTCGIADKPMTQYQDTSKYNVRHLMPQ

[9] = target: actin related protein 2/3 complex, subunit 1B, 41 kDa (human, UniProt O15143 1-372); assay: as above; conditions: protein: commercial; label: biotin; intramolecular parallel G4
[10] = target: T7, hypothetical protein HSPC111 (human, UniProt Q9Y3C1 1-178); assay: protein microarray; 2.5 uM ON; 4.85 at 25 uM; Microarray: 20 mM Tris pH 7.5, 5 mM MgCl2, 100 mM KCl, 0.1% Tween-20, A/T-rich ON blocker mix; EMSA: 20 mM Tris-HCl pH 8, 100 mM KCl, 200 nM ON, 0-200 nM BRD3; conditions: protein: commercial; label: biotin; intramolecular parallel G4
T7 sequence: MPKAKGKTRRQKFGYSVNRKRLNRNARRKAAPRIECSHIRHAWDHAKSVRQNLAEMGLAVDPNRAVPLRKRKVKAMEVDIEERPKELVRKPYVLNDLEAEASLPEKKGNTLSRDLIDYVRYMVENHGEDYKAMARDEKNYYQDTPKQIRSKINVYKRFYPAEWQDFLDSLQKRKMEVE

[11] = target: T8, Peptidyl-tRNA hydrolase 2, mitochondrial (human, UniProt Q9Y3E5 1-179); assay: as above; conditions: protein: commercial; label: biotin; intramolecular parallel G4
T8 sequence: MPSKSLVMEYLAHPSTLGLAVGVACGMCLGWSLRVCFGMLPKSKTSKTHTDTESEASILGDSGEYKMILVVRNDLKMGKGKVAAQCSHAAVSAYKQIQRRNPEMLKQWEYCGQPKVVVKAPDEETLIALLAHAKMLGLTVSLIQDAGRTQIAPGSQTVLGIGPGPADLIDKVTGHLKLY

[12] = target: peptidyl arginine deiminase, type IV (human, UniProt Q9UM07 1-663); assay: as above; conditions: protein: commercial; label: biotin; intramolecular parallel G4
peptidyl arginine deiminase, type IV, sequence (Q9UM07 whole entry, the tested form may be a part): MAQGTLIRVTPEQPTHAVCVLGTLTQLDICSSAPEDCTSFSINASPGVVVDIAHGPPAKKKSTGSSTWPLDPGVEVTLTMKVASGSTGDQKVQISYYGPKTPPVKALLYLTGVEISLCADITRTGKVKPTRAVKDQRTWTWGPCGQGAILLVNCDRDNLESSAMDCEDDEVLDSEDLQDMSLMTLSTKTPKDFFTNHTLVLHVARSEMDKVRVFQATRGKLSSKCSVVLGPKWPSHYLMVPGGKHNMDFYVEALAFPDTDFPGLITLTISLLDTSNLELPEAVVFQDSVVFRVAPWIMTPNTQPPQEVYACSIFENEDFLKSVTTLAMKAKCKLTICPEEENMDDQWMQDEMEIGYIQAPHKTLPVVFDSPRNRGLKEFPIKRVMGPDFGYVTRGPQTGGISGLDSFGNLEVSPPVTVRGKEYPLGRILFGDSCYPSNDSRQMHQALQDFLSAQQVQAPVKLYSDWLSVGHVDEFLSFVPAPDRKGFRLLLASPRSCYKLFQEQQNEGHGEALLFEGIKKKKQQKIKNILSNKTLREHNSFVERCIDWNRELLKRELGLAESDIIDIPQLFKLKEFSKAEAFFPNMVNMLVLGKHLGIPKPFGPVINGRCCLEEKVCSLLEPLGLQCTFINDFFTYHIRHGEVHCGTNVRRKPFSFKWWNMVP

[13] = target: Coiled-coil domain-containing protein 28A (human, UniProt Q8IWP9 1-274); assay: as above; conditions: protein: commercial; label: biotin; intramolecular parallel G4
Coiled-coil domain-containing protein 28A, sequence (Q8IWP9 whole entry, the tested form may be a part): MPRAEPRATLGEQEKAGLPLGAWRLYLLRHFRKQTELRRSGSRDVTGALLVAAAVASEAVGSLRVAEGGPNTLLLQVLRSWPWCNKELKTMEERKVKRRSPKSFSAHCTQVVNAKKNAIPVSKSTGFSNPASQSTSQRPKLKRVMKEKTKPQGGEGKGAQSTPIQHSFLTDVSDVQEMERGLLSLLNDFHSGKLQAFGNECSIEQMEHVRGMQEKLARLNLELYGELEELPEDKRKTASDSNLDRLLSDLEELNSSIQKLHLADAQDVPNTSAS

[14] = target: T9, bromodomain containing 3 (human, UniProt Q15059-2 1-556); assay: as above; conditions: protein: commercial; label: biotin; intramolecular parallel G4
T9 sequence (Q15059 other isoform, or with tags, fused parts or gaps): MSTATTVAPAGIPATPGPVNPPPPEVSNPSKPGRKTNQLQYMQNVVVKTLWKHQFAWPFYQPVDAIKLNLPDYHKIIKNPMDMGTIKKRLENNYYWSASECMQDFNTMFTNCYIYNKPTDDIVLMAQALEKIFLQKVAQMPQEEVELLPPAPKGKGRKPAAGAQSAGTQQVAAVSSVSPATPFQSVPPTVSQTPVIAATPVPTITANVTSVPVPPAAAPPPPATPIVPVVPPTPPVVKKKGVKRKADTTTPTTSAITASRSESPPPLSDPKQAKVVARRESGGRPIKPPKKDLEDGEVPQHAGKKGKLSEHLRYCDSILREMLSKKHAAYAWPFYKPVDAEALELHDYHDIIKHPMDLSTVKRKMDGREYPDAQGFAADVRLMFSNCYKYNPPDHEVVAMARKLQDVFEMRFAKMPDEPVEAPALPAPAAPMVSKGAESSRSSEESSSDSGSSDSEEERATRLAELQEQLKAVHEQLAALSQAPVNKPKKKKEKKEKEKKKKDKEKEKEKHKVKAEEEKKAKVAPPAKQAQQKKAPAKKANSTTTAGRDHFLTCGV

[15] = target: T2, GABA(A) receptor-associated protein; assay: protein microarray; 2.5 uM ON; 6.47 at 25 uM; Microarray: 20 mM Tris pH 7.5, 5 mM MgCl2, 100 mM KCl, 0.1% Tween-20, A/T-rich ON blocker mix; EMSA: 20 mM Tris-HCl pH 8, 100 mM KCl, 200 nM ON, 0-200 nM BRD3; conditions: protein: commercial; label: biotin; G4; mixed topology for unmodified strand, CD differs when biotinylated
[16] = target: T3, chromosome 1 open reading frame 63; assay: as above; conditions: protein: commercial; label: biotin; G4; mixed topology for unmodified strand, CD differs when biotinylated
[17] = target: T4, additional sex combs like 1; assay: as above; conditions: protein: commercial; label: biotin; G4; mixed topology for unmodified strand, CD differs when biotinylated
[18] = target: T9, bromodomain containing 3; assay: as above; conditions: protein: commercial; label: biotin; G4; mixed topology for unmodified strand, CD differs when biotinylated

Binder	binding signal [1] [Z-score]	binding signal [2] [Z-score]	binding signal [3] [Z-score]	binding signal [4] [Z-score]	binding signal [5] [Z-score]	binding signal [6] [Z-score]	binding signal [7] [Z-score]	binding signal [8] [Z-score]	binding signal [9] [Z-score]	binding signal [10] [Z-score]	binding signal [11] [Z-score]	binding signal [12] [Z-score]	binding signal [13] [Z-score]	binding signal [14] [Z-score]	binding signal [15] [Z-score]	binding signal [16] [Z-score]	binding signal [17] [Z-score]	binding signal [18] [Z-score]
GGTGACAGGGGTATGGGGAGGGG (structured_DNA, 3'-biotin) [G4-2 biotinylated (Ct1)]	6.45	6.62	6.17	6.73	6.29	6.79	6.68	6.4	6.19	6.78	3.46	6.78	6.78	6.79				
GGGGACAGGGGTATGGGGAGGGG (structured_DNA, 3'-biotin) [G4-3 biotinylated (CtG)]															7.02	5.93	9.22	4.51
